# Measurements published in US20230380451A1, “MEANS AND METHODS TO DETOXIFY MYCOTOXINS” (priority 2020, published 2023).
# B1: Akr II: artificial amino acid sequence, variant of a wild type aldo-keto reductase (protein)
# chain: MRTTEIAQGLKVSNLCIGAGPLGGMPTAFGYDVSEERGIATVQAVFDSPINFMDTSSEYGGSEARIGKVIREGLMPKGFVISSKADAEGEGVGRRGDFSAKQVRASFELSLERLGLTHLDVYFLHDPEKFPFEQVMARGGAMEELLRLKDEGLVGLVGVAGGDVLEMARYVDTGSLDILLNYGRYTLLDRSADSLITKVSDAGMAFLNAGPYASGLLAAPRGGSAWYQYAPPDATALQAVDQLHELCESFDVSLRSVALQFSMRDPRITSTVVGLSRPERVRALLDDEAAEIPAELWEQLPAPLNGDIVLPG
# modifications: ArkII
# How the values were obtained:
# [1] = Storage stability at different pH values, residual DON transformation activity; type: biochemical; details: storage at 30° C.
# Description: (§1) To determine the transformation of DON to epi-THS by Akr I-III, described herein, the following assay was performed. An assay buffer was prepared containing 40 ppm DON, 1 mM NADPH in Teorell Stenhagen (TS) buffer, pH 6.0 (Östling and Virtama, Acta Physiologica Scandinavica, 1946, 11:4, 289-293). Tubes containing the assay buffer were transferred in a heating block at 30° C. The reaction was started by addition of Akr I-III to a final concentration of 200 nM in a final reaction volume of 200 μL. Samples were taken before reaction start, and 2, 5, 10, 15 and 20 min after reaction start. DON transformation reactions in these samples were stopped by mixing with absolute methanol at a 1:2 ratio, followed by a 1:100 dilution with 40% methanol. The concentrations of DON and epi-THS in the samples were determined with liquid chromatography-mass spectrometry (LC-MS) on a Sciex 5500 triple quadrupole mass spectrometer coupled to Agilent 1290 series UHPLC system, using the following MS parameters: Acquisition duration: 4 min; Scan Type: MRM (MRM); Polarity: Negative; Ion Source: Turbo Spray.
# The storage stability of Akr I-III at different pH values was tested by incubating 1 μM enzyme in TS buffer solutions with a pH of 3.0-10.0 for 4 h at 30° C. in standard 1.5 ml Eppendorf tubes. Every hour, a DON transformation assay was conducted as described in Example 3. The starting activity at time 0 min was set to 100% and the relative residual activities were determined throughout the incubation. For the DON transformation assays, 80 μl of the storage solution were added to an assay reaction with a final volume of 400 μl, which corresponds to a 1:5 dilution of the storage solution. Akr I retained more than 93% activity during 4 hours at 30° C. from pH 4.0-10.0. Akr II retained 30% to 93% activity during 4 hours at 30° C. from pH […] retained 27% to 85% activity during 4 hours at 30° C. from pH 4.0-9.0. Akr I-III retained more than 40% of their activity for 4 hours at 30° C. from pH 4.0 to pH 8.0.
# [2] = Storage stability in storage buffer at different temperatures, residual DON transformation activity; type: biochemical; details: storage buffer
# Description: as §1
# The storage stability of Akr I-III was tested by incubation of 5 μM enzyme solutions in storage buffer (50 mM Tris pH 9.0, 0.5M NaCl, 50% Glycerol), for 60 min in a thermocycler (Mastercycler, Eppendorf) set to gradient mode from 30° C. to 50° C. Throughout the incubation, samples were removed and placed on ice until DON transformation assays were performed as described in Example 3 to determine enzyme activities. The starting activity at time 0 min was set to 100% and the relative residual activities were determined throughout the incubation. Akr I retained more than 33% activity during 60 min in pH 6 at temperatures from 29.9° C. to 46.0° C. Akr III retained 15% to 90% activity during 20 min in pH 6 at temperatures from 29.9° C. to 40.7° C.
molecule,measurement,setting,value
B1,Relative DON-transformation activity,"[1]; pH 3.0, 0 h (starting activity set to 100%)",100.0%
same,Relative DON-transformation activity,"[1]; pH 3.0, 1 h",34.5%
same,Relative DON-transformation activity,"[1]; pH 3.0, 2 h",1.1%
same,Relative DON-transformation activity,"[1]; pH 3.0, 3 h",0.0%
same,Relative DON-transformation activity,"[1]; pH 3.0, 4 h",0.0%
same,Relative DON-transformation activity,"[1]; pH 4.0, 0 h (starting activity set to 100%)",100.0%
same,Relative DON-transformation activity,"[1]; pH 4.0, 1 h",99.3%
same,Relative DON-transformation activity,"[1]; pH 4.0, 2 h",96.6%
same,Relative DON-transformation activity,"[1]; pH 4.0, 3 h",87.1%
same,Relative DON-transformation activity,"[1]; pH 4.0, 4 h",89.0%
same,Relative DON-transformation activity,"[1]; pH 5.0, 0 h (starting activity set to 100%)",100.0%
same,Relative DON-transformation activity,"[1]; pH 5.0, 1 h",100.1%
same,Relative DON-transformation activity,"[1]; pH 5.0, 2 h",99.8%
same,Relative DON-transformation activity,"[1]; pH 5.0, 3 h",99.3%
same,Relative DON-transformation activity,"[1]; pH 5.0, 4 h",92.4%
same,Relative DON-transformation activity,"[1]; pH 6.0, 0 h (starting activity set to 100%)",100.0%
same,Relative DON-transformation activity,"[1]; pH 6.0, 1 h",77.3%
same,Relative DON-transformation activity,"[1]; pH 6.0, 2 h",85.1%
same,Relative DON-transformation activity,"[1]; pH 6.0, 3 h",77.6%
same,Relative DON-transformation activity,"[1]; pH 6.0, 4 h",61.8%
same,Relative DON-transformation activity,"[1]; pH 7.0.0, 0 h (starting activity set to 100%)",100.0%
same,Relative DON-transformation activity,"[1]; pH 7.0.0, 1 h",79.6%
same,Relative DON-transformation activity,"[1]; pH 7.0.0, 2 h",64.5%
same,Relative DON-transformation activity,"[1]; pH 7.0.0, 3 h",56.9%
same,Relative DON-transformation activity,"[1]; pH 7.0.0, 4 h",57.4%
same,Relative DON-transformation activity,"[1]; pH 8.0, 0 h (starting activity set to 100%)",100.0%
same,Relative DON-transformation activity,"[1]; pH 8.0, 1 h",85.1%
same,Relative DON-transformation activity,"[1]; pH 8.0, 2 h",68.3%
same,Relative DON-transformation activity,"[1]; pH 8.0, 3 h",53.2%
same,Relative DON-transformation activity,"[1]; pH 8.0, 4 h",40.9%
same,Relative DON-transformation activity,"[1]; pH 9.0.0, 0 h (starting activity set to 100%)",100.0%
same,Relative DON-transformation activity,"[1]; pH 9.0.0, 1 h",76.5%
same,Relative DON-transformation activity,"[1]; pH 9.0.0, 2 h",54.7%
same,Relative DON-transformation activity,"[1]; pH 9.0.0, 3 h",36.1%
same,Relative DON-transformation activity,"[1]; pH 9.0.0, 4 h",29.9%
same,Relative DON-transformation activity,"[1]; pH 10.0, 0 h (starting activity set to 100%)",100.0%
same,Relative DON-transformation activity,"[1]; pH 10.0, 1 h",54.4%
same,Relative DON-transformation activity,"[1]; pH 10.0, 2 h",37.7%
same,Relative DON-transformation activity,"[1]; pH 10.0, 3 h",13.9%
same,Relative DON-transformation activity,"[1]; pH 10.0, 4 h",7.2%
same,Relative DON transformation activity,"[2]; 29.9° C., 0 min (starting activity set to 100%)",100.00%
same,Relative DON transformation activity,"[2]; 29.9° C., 5 min",95.8%
same,Relative DON transformation activity,"[2]; 29.9° C., 10 min",91.6%
same,Relative DON transformation activity,"[2]; 29.9° C., 20 min",90.3%
same,Relative DON transformation activity,"[2]; 29.9° C., 35 min",89.4%
same,Relative DON transformation activity,"[2]; 29.9° C., 50 min",84.1%
same,Relative DON transformation activity,"[2]; 29.9° C., 60 min",86.8%
same,Relative DON transformation activity,"[2]; 35.3° C., 0 min (starting activity set to 100%)",100.00%
same,Relative DON transformation activity,"[2]; 35.3° C., 5 min",91.9%
same,Relative DON transformation activity,"[2]; 35.3° C., 10 min",92.5%
same,Relative DON transformation activity,"[2]; 35.3° C., 20 min",86.0%
same,Relative DON transformation activity,"[2]; 35.3° C., 35 min",77.4%
same,Relative DON transformation activity,"[2]; 35.3° C., 50 min",49.6%
same,Relative DON transformation activity,"[2]; 35.3° C., 60 min",46.4%
same,Relative DON transformation activity,"[2]; 37.9° C., 0 min (starting activity set to 100%)",100.00%
same,Relative DON transformation activity,"[2]; 37.9° C., 5 min",90.5%
same,Relative DON transformation activity,"[2]; 37.9° C., 10 min",80.2%
same,Relative DON transformation activity,"[2]; 37.9° C., 20 min",65.0%
same,Relative DON transformation activity,"[2]; 37.9° C., 35 min",38.1%
same,Relative DON transformation activity,"[2]; 37.9° C., 50 min",10.6%
same,Relative DON transformation activity,"[2]; 37.9° C., 60 min",6.2%
same,Relative DON transformation activity,"[2]; 40.7° C., 0 min (starting activity set to 100%)",100.00%
same,Relative DON transformation activity,"[2]; 40.7° C., 5 min",61.5%
same,Relative DON transformation activity,"[2]; 40.7° C., 10 min",56.1%
same,Relative DON transformation activity,"[2]; 40.7° C., 20 min",15.5%
same,Relative DON transformation activity,"[2]; 40.7° C., 35 min",11.3%
same,Relative DON transformation activity,"[2]; 40.7° C., 50 min",0.00%
same,Relative DON transformation activity,"[2]; 40.7° C., 60 min",0.00%
same,Relative DON transformation activity,"[2]; 43.4° C., 0 min (starting activity set to 100%)",100.00%
same,Relative DON transformation activity,"[2]; 43.4° C., 5 min",39.2%
same,Relative DON transformation activity,"[2]; 43.4° C., 10 min",34.9%
same,Relative DON transformation activity,"[2]; 43.4° C., 20 min",21.9%
same,Relative DON transformation activity,"[2]; 43.4° C., 35 min",7.1%
same,Relative DON transformation activity,"[2]; 43.4° C., 50 min",0.00%
same,Relative DON transformation activity,"[2]; 43.4° C., 60 min",0.00%
same,Relative DON transformation activity,"[2]; 46.0° C., 0 min (starting activity set to 100%)",100.00%
same,Relative DON transformation activity,"[2]; 46.0° C., 5 min",2.9%
same,Relative DON transformation activity,"[2]; 46.0° C., 10 min",4.7%
same,Relative DON transformation activity,"[2]; 46.0° C., 20 min",0.00%
same,Relative DON transformation activity,"[2]; 46.0° C., 35 min",2.7%
same,Relative DON transformation activity,"[2]; 46.0° C., 50 min",0.00%
same,Relative DON transformation activity,"[2]; 46.0° C., 60 min",0.00%
same,Relative DON transformation activity,"[2]; 50.8° C., 0 min (starting activity set to 100%)",100.00%
same,Relative DON transformation activity,"[2]; 50.8° C., 5 min",4.7%
same,Relative DON transformation activity,"[2]; 50.8° C., 10 min",5.7%
same,Relative DON transformation activity,"[2]; 50.8° C., 20 min",9.4%
same,Relative DON transformation activity,"[2]; 50.8° C., 35 min",2.4%
same,Relative DON transformation activity,"[2]; 50.8° C., 50 min",0.00%
same,Relative DON transformation activity,"[2]; 50.8° C., 60 min",0.00%
